Numbering of substitutions follows the chain as printed. Names may count otherwise.
B1: ICOSL ECD Truncation #8 with N207G/L208G and N52H/N57Y/Q100R/F172S, Fc fusion (Fc fusion)
chain: DTQEKEVRAMVGSDVELSCACPEGSRFDLNDVYVYWQTSESKTVVTYHIPQHSSLEYVDSRYRNRALMSPAGMLRGDFSLRLFNVTPQDEQKFHCLVLSRSLGFQEVLSVEVTLHVAANFSVPVVSAPHSPSQDELTFTCTSINGYPRPNVYWINKTDNSLLDQALQNDTVSLNMRGLYDVVSVLRIARTPSVNIGCCIENVLLQQGGTGGGGSGGGGSEPKSSDKTHTCPPCPAPEAEGAPSVFLFPPKPKDTLMISRTPEVTCVVVDVSHEDPEVKFNWYVDGVEVHNAKTKPREEQYNSTYRVVSVLTVLHQDWLNGKEYKCKVSNKALPAPIEKTISKAKGQPREPQVYTLPPSREEMTKNQVSLTCLVKGFYPSDIAVEWESNGQPENNYKTTPPVLDSDGSFFLYSKLTVDKSRWQQGNVFSCSVMHEALHNHYTQKSLSLSPG
notes: Made in CHO cells
B2: ICOSL IgV with N52H/N57Y/Q100R and H48R/S54P, Fc fusion (Fc fusion)
chain: DTQEKEVRAMVGSDVELSCACPEGSRFDLNDVYVYWQTSESKTVVTYRIPQHSPLEYVDSRYRNRALMSPAGMLRGDFSLRLFNVTPQDEQKFHCLVLSRSLGFQEVLSVEVTLHVAANFSVGGGGSGGGGSEPKSSDKTHTCPPCPAPEAEGAPSVFLFPPKPKDTLMISRTPEVTCVVVDVSHEDPEVKFNWYVDGVEVHNAKTKPREEQYNSTYRVVSVLTVLHQDWLNGKEYKCKVSNKALPAPIEKTISKAKGQPREPQVYTLPPSREEMTKNQVSLTCLVKGFYPSDIAVEWESNGQPENNYKTTPPVLDSDGSFFLYSKLTVDKSRWQQGNVFSCSVMHEALHNHYTQKSLSLSPG
notes: Made in CHO cells. '554P' is read as S54P; also called ICOSL IgV with N52H/N57Y/Q100R and H48R/554P
B3: ICOSL ECD Truncation #5 with N52H/N57Y/Q100R/C198R (Fc fusion, not shown: a dimerising Fc or GST)
chain: DTQEKEVRAMVGSDVELSCACPEGSRFDLNDVYVYWQTSESKTVVTYHIPQHSSLEYVDSRYRNRALMSPAGMLRGDFSLRLFNVTPQDEQKFHCLVLSRSLGFQEVLSVEVTLHVAANFSVPVVSAPHSPSQDELTFTCTSINGYPRPNVYWINKTDNSLLDQALQNDTVFLNMRGLYDVVSVLRIARTPSVNIGCRIENVLLQQ
notes: Made in CHO cells
B4: ICOSL ECD Truncation #4 with N52H/N57Y/Q100R/F172S and E200G, Fc fusion (Fc fusion)
chain: DTQEKEVRAMVGSDVELSCACPEGSRFDLNDVYVYWQTSESKTVVTYHIPQHSSLEYVDSRYRNRALMSPAGMLRGDFSLRLFNVTPQDEQKFHCLVLSRSLGFQEVLSVEVTLHVAANFSVPVVSAPHSPSQDELTFTCTSINGYPRPNVYWINKTDNSLLDQALQNDTVSLNMRGLYDVVSVLRIARTPSVNIGCCIGNVLLQQNGGGGSGGGGSEPKSSDKTHTCPPCPAPEAEGAPSVFLFPPKPKDTLMISRTPEVTCVVVDVSHEDPEVKFNWYVDGVEVHNAKTKPREEQYNSTYRVVSVLTVLHQDWLNGKEYKCKVSNKALPAPIEKTISKAKGQPREPQVYTLPPSREEMTKNQVSLTCLVKGFYPSDIAVEWESNGQPENNYKTTPPVLDSDGSFFLYSKLTVDKSRWQQGNVFSCSVMHEALHNHYTQKSLSLSPG
notes: Made in CHO cells; E200G is an additional mutation found later in the clone
B5: variant ICOSL ECD-Fc N52H/N57Y/Q100P, AAA linker, Fc C220S/L234A/L235E/G237A (SEQ ID NO: 40) (Fc fusion)
chain: DTQEKEVRAMVGSDVELSCACPEGSRFDLNDVYVYWQTSESKTVVTYHIPQHSSLEYVDSRYRNRALMSPAGMLRGDFSLRLFNVTPQDEQKFHCLVLSPSLGFQEVLSVEVTLHVAANFSVPVVSAPHSPSQDELTFTCTSINGYPRPNVYWINKTDNSLLDQALQNDTVFLNMRGLYDVVSVLRIARTPSVNIGCCIENVLLQQNLTVGSQTGNDIGERDKITENPVSTGEKNAATAAAEPKSSDKTHTCPPCPAPEAEGAPSVFLFPPKPKDTLMISRTPEVTCVVVDVSHEDPEVKFNWYVDGVEVHNAKTKPREEQYNSTYRVVSVLTVLHQDWLNGKEYKCKVSNKALPAPIEKTISKAKGQPREPQVYTLPPSREEMTKNQVSLTCLVKGFYPSDIAVEWESNGQPENNYKTTPPVLDSDGSFFLYSKLTVDKSRWQQGNVFSCSVMHEALHNHYTQKSLSLSPGK
notes: Made in 293 cells; Fc or allotypes thereof
B6: variant ICOSL ECD-Fc N52H/N57Y/Q100R/F172S, AAA linker, Fc C220S/L234A/L235E/G237A (SEQ ID NO: 40) (Fc fusion)
chain: B5 chain with P100R, F172S
notes: as for B5

Experiments:
[1] = molecular target: T1, human CD28 (human, UniProt P10747 19-220); experiment: flow cytometry, cells with human CD28; protein from CHO
T1 construct: whole, on cells

[2] = molecular target: T2, human ICOS (human, UniProt Q9Y6W8 21-199); experiment: flow cytometry, cells with human ICOS; protein from CHO
T2 construct: whole, on cells
T2 sequence (looked up): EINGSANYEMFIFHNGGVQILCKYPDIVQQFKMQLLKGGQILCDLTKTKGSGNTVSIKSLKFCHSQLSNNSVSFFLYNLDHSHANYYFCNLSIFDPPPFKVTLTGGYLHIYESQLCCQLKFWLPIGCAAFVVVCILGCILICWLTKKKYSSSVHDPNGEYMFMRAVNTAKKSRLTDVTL

[3] = molecular target: T3, human CTLA-4 (human, UniProt P16410 36-223); experiment: flow cytometry, cells with human CTLA-4; protein from CHO
T3 construct: whole, on cells

[4] = molecular target: T3, human CTLA-4; experiment: flow cytometry, Expi293 cells with human CTLA-4
Description: (§1) Expi293 cells transfected with cognate binding partners, human CD28, ICOS and CTLA4, were used as target cells in binding studies.

[5] = molecular target: T2, human ICOS; experiment: flow cytometry, Expi293 cells with human ICOS
Protocol: Binding studies were carried out on transfected HEK293 cells generated to express the full-length mammalian (human) surface ligands, CD28, ICOS or CTLA-4, using a transient transfection system (Life Technologies, USA). As a control, binding to mock (non-transfected) cells also was assessed. For staining by flow cytometry, 200,000 cells of appropriate transient transfection or negative control (mock) were plated in 96 well round bottom plates, and, then incubated in staining buffer (PBS, phosphate buffered saline; 1% BSA, bovine serum albumin; and 0.1% sodium azide) for 20 minutes to block non-specific binding. Cells were resuspended in staining buffer containing 100 nM to 1 nM variant immunomodulatory protein in 50 μL. Mean Fluorescence Intensity (MFI) was calculated for each transfectant and negative parental line with Cell Quest Pro software (Becton Dickinson, USA) or a Hypercyt flow cytometer (Intellicyte, USA).
as §1

[6] = molecular target: T1, human CD28; experiment: flow cytometry, Expi293 cells with human CD28
Description: as §1

T3 sequence (P16410 36-223): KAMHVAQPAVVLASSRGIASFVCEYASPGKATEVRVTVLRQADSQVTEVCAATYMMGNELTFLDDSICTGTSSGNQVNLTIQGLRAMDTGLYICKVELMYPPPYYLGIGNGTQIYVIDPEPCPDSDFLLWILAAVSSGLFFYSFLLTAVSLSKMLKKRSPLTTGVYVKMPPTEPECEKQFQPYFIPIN

Binder	MFI (ΔWT) [1]	MFI (ΔWT) [2]	MFI (ΔWT) [3]	MFI [1]	MFI [2]	MFI [3]	MFI (ΔWT) [4]	MFI (ΔWT) [5]	MFI (ΔWT) [6]
B1	62.4 fold vs WT	1.3 fold vs WT	40.7 fold vs WT						
B2	43.6 fold vs WT	1.4 fold vs WT	42.4 fold vs WT						
B3	50 fold vs WT	1.1 fold vs WT	28.5 fold vs WT	86300 MFI	110000 MFI	216000 MFI			
B4	46.6 fold vs WT	1.1 fold vs WT	42.3 fold vs WT						
B5							18.2 fold vs WT	1.2 fold vs WT	13.1 fold vs WT
B6							20.6 fold vs WT	1.3 fold vs WT	12.5 fold vs WT
